Reference: US8324357, “Universal fieldable assay with unassisted visual detection” (University of Southern California)

Legend:
VEGF165 = VEGF165 (Homo sapiens, UniProt P15692-4 P15692-4:27-191); assay: EMSA; IC buffer, 3 mM CaCl2; conditions: tags: R&D Systems or USB; chain copies: 2 (inferred)
[1] = target: Russell's viper venom factor X activator (RVV-X) (UniProt Q7LZ61;Q4PRD1;Q4PRD2 Q7LZ61:189-619,Q4PRD1:24-146,Q4PRD2:25-158); assay: EMSA; conditions: tags: Haematologic Technologies
Sequence of Russell's viper venom factor X activator (RVV-X) (Q7LZ61 189-619, chain 1 of 3): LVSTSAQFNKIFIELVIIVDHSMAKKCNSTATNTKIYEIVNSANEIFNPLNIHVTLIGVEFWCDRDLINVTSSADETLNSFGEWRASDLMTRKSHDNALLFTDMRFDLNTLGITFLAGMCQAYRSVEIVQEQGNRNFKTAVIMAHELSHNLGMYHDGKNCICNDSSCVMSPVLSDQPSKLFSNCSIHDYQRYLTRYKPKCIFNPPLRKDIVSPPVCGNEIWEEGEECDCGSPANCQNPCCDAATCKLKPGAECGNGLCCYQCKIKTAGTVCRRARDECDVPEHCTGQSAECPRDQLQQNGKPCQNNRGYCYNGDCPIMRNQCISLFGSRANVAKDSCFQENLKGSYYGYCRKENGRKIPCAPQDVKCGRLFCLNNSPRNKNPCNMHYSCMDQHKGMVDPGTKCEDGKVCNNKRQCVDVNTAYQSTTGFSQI
Sequence of Russell's viper venom factor X activator (RVV-X) (Q4PRD1 24-146, chain 2 of 3): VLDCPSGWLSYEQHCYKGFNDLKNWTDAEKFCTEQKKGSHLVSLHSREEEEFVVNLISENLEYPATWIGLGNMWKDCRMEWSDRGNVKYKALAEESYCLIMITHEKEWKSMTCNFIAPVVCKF
Sequence of Russell's viper venom factor X activator (RVV-X) (Q4PRD2 25-158, chain 3 of 3): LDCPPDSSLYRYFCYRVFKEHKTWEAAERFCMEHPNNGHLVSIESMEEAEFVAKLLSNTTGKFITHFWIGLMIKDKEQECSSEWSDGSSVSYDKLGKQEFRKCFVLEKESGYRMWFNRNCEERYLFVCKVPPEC

Sequence of VEGF165 (P15692 other isoform, or with tags, fused parts or gaps): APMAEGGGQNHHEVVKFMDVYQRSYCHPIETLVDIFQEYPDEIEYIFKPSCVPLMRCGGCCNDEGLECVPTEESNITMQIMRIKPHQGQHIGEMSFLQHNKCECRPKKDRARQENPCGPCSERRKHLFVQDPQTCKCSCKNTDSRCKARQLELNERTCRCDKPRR

B1: RNA132 (ssRNA)
RNA: GGGAGGGAAUCAGUGAAUGCUUAUACAUCCCUCCUUGAGCAGUCGAUUAGUUUCGACAGGAGGCUCAC
For B1, the Kd (VEGF165) was 5.7 nM and the Kd [1] was 5.7 nM.
